Measured values reported in paper PMC2874613 (Traffic (Copenhagen, Denmark), 2010).

T1: GST-[1-313]GGA3 (UniProt Q9NZ52 1-313)
T1 sequence (looked up): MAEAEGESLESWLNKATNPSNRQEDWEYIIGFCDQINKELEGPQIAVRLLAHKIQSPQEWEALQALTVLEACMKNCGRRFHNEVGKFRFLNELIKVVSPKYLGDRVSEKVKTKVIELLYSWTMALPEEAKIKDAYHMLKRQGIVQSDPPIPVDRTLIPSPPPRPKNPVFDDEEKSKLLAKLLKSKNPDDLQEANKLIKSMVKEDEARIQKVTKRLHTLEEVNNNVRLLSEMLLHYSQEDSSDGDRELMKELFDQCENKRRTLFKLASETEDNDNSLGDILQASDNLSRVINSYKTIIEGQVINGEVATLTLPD

B1: Arf1-GFP expressed in HEK293T cells (human Arf1/pEGFPN1) (natural protein)
chain: not shown
B2: Arf1-HA expressed in HEK293T cells (natural protein)
chain: not shown
B3: Arf1 expressed in HEK293T cells (human Arf1/pcDNA3.1) (natural protein)
chain: not shown

The binders below were run against T1, GST-[1-313]GGA3 (assay: pull-down).

Row | Binder | percent of total Arf precipitated with GST-[1-313]GGA3
1 | B1 | > 0.3 % of the total
2 | B2 | < 0.15 % of the total
3 | B3 | < 0.15 % of the total
